This note sets out measurements from the Immune Epitope Database (IEDB).

Targets include HLA-A*03:01; HLA-A*11:01; HLA-A*33:01; HLA-A*31:01; HLA-A*68:01.
Assay in all cases: IEDB peptide-MHC binding, purified MHC/competitive/radioactivity; filed as Kd, often an IC50 or EC50 that approximates it; ≥ and ≤ were set here for values at or beyond the usual limits of such assays
The target in another experiment is HLA-A*02:06. The conditions noted are these: source organism: Dengue virus 4 Philippines/H241/1956.
Setting [1] is: source organism: Lassa virus Josiah.
The mark [2] stands for this setting: source organism: Mammarenavirus machupoense.
Where [3] appears, read: source organism: Vaccinia virus Copenhagen.
The mark [4] stands for this setting: source organism: SARS coronavirus Tor2.
Setting [5] is: source organism: Vaccinia virus WR.
[6] abbreviates: source organism: Lymphocytic choriomeningitis virus (strain Pasteur).

As a reminder, the Kd is the equilibrium constant for the complex coming apart.

Consider SAVIDALPR, for which the Kd in the experiment with HLA-A*03:01 (setting [1]) is 11000 nM; in the experiment with HLA-A*11:01 (setting [1]), 222 nM; with HLA-A*33:01 (setting [1]) it was 15300 nM; with HLA-A*31:01 (setting [1]), 2120 nM; with HLA-A*68:01 (setting [1]), 53.3 nM.

For SFFQEIPVFL, the Kd was no less than 70000 nM with HLA-A*03:01 (setting [2]); no less than 59700 nM in the experiment with HLA-A*11:01 (setting [2]); 2410 nM in the experiment with HLA-A*33:01 (setting [2]); 613 nM with HLA-A*31:01 (setting [2]); no less than 49200 nM in the experiment with HLA-A*68:01 (setting [2]).

SLAIKNYYR: the Kd with HLA-A*03:01 (setting [3]) was no less than 43000 nM; with HLA-A*11:01 (setting [3]) it was 6060 nM; in the experiment with HLA-A*33:01 (setting [3]), no less than 77700 nM; with HLA-A*31:01 (setting [3]), 3100 nM; in the experiment with HLA-A*68:01 (setting [3]) it was 6410 nM.

Turning to SLQVCVQTVR, the Kd with HLA-A*03:01 (setting [4]) is 13300 nM; in the experiment with HLA-A*11:01 (setting [4]) it was 7030 nM; in the experiment with HLA-A*33:01 (setting [4]) it was 5110 nM; in the experiment with HLA-A*31:01 (setting [4]), 470 nM; with HLA-A*68:01 (setting [4]), 5790 nM.

With SMTIREFPRK, the equilibrium dissociation constant (Kd) with HLA-A*03:01 (setting [5]) came out at 10.1 nM; in the experiment with HLA-A*11:01 (setting [5]), 3.18 nM; with HLA-A*33:01 (setting [5]) it was 6880 nM; with HLA-A*31:01 (setting [5]), 39.6 nM; in the experiment with HLA-A*68:01 (setting [5]), 1250 nM.

On to SSRVDRYSK, for which the equilibrium dissociation constant (Kd) turned out to be 65.9 nM in the experiment with HLA-A*03:01 (setting [5]); 16.9 nM with HLA-A*11:01 (setting [5]); 1210 nM in the experiment with HLA-A*33:01 (setting [5]); 266 nM in the experiment with HLA-A*31:01 (setting [5]); 611 nM with HLA-A*68:01 (setting [5]).

For the sequence STAEQLSKY, the Kd was 2430 nM with HLA-A*03:01 (setting [5]); 133 nM with HLA-A*11:01 (setting [5]); no less than 77700 nM with HLA-A*33:01 (setting [5]); no less than 77900 nM with HLA-A*31:01 (setting [5]); 54.9 nM with HLA-A*68:01 (setting [5]).

Turning to TIDNPTKYIR, the dissociation constant (Kd) with HLA-A*03:01 (setting [5]) is 15700 nM; with HLA-A*11:01 (setting [5]), 2600 nM; with HLA-A*33:01 (setting [5]), 4260 nM; with HLA-A*31:01 (setting [5]) it was 115 nM; in the experiment with HLA-A*68:01 (setting [5]) it was 158 nM.

Consider TINVNSLALK, for which the dissociation constant (Kd) worked out at 17.3 nM in the experiment with HLA-A*03:01 (setting [5]); 18.7 nM with HLA-A*11:01 (setting [5]); 4000 nM in the experiment with HLA-A*33:01 (setting [5]); 1120 nM in the experiment with HLA-A*31:01 (setting [5]); 6.2 nM with HLA-A*68:01 (setting [5]).

TMPNESRVK: the Kd was 17500 nM with HLA-A*03:01 (setting [5]); 930 nM with HLA-A*11:01 (setting [5]); no less than 77700 nM with HLA-A*33:01 (setting [5]); no less than 61600 nM with HLA-A*31:01 (setting [5]); 2040 nM with HLA-A*68:01 (setting [5]).

As to TQLYLGGMSY, the Kd was 36.5 nM in the experiment with HLA-A*03:01 (setting [4]); 766 nM in the experiment with HLA-A*11:01 (setting [4]); no less than 40000 nM with HLA-A*33:01 (setting [4]); 5840 nM in the experiment with HLA-A*31:01 (setting [4]); 1350 nM with HLA-A*68:01 (setting [4]).

Consider TVENNIDFLK, for which the dissociation constant (Kd) with HLA-A*03:01 (setting [5]) was determined as 2650 nM; with HLA-A*11:01 (setting [5]), 69.9 nM; with HLA-A*33:01 (setting [5]) it was 17900 nM; with HLA-A*31:01 (setting [5]) it was 8650 nM; with HLA-A*68:01 (setting [5]) it was 19.7 nM.

As for TYLGPLNCK, the Kd with HLA-A*03:01 (setting [6]) was 481 nM; with HLA-A*11:01 (setting [6]) it was 47.8 nM; with HLA-A*33:01 (setting [6]) it was 834 nM; with HLA-A*31:01 (setting [6]), 5220 nM; in the experiment with HLA-A*68:01 (setting [6]) it was 699 nM.

Regarding VAEHRFENMK, the dissociation constant Kd was 4870 nM with HLA-A*03:01 (setting [5]); 788 nM with HLA-A*11:01 (setting [5]); no less than 70000 nM in the experiment with HLA-A*33:01 (setting [5]); no less than 34700 nM with HLA-A*31:01 (setting [5]); 5730 nM in the experiment with HLA-A*68:01 (setting [5]).

In the case of VIEYAKSISK, the equilibrium dissociation constant (Kd) in the experiment with HLA-A*03:01 (setting [5]) was 129 nM; with HLA-A*11:01 (setting [5]) it was 165 nM; in the experiment with HLA-A*33:01 (setting [5]), 17500 nM; in the experiment with HLA-A*31:01 (setting [5]), 10800 nM; with HLA-A*68:01 (setting [5]), 2720 nM.

VLKAMHDKK: the dissociation constant Kd in the experiment with HLA-A*03:01 (setting [5]) was determined as 263 nM; with HLA-A*11:01 (setting [5]), 364 nM; with HLA-A*33:01 (setting [5]) it was 977 nM; in the experiment with HLA-A*31:01 (setting [5]), 126 nM; with HLA-A*68:01 (setting [5]), 3420 nM.

In the case of VQIENLEYTV, in the experiment with HLA-A*02:06, the Kd was determined as 4.4 nM.

Consider VSTGESSILR, for which the Kd in the experiment with HLA-A*03:01 (setting [5]) is no less than 24900 nM; with HLA-A*11:01 (setting [5]), 204 nM; with HLA-A*33:01 (setting [5]) it was 3230 nM; in the experiment with HLA-A*31:01 (setting [5]), 1390 nM; with HLA-A*68:01 (setting [5]) it was 119 nM.

As for VTPEYIKDLK, the dissociation constant Kd with HLA-A*03:01 (setting [5]) is 14300 nM; with HLA-A*11:01 (setting [5]), 522 nM; with HLA-A*33:01 (setting [5]), no less than 70000 nM; with HLA-A*31:01 (setting [5]) it was 15100 nM; with HLA-A*68:01 (setting [5]) it was 374 nM.

VTSSGVIYK: the Kd in the experiment with HLA-A*03:01 (source organism: Variola virus) is no less than 70000 nM; with HLA-A*11:01 (source organism: Variola virus), no less than 69700 nM; in the experiment with HLA-A*33:01 (source organism: Variola virus), no less than 70000 nM; with HLA-A*31:01 (source organism: Variola virus), no less than 70000 nM; with HLA-A*68:01 (source organism: Variola virus) it was no less than 70100 nM.

For VVKDDPDHY, the Kd in the experiment with HLA-A*03:01 (setting [5]) was no less than 78000 nM; in the experiment with HLA-A*11:01 (setting [5]) it was 1800 nM; in the experiment with HLA-A*33:01 (setting [5]) it was no less than 77700 nM; with HLA-A*31:01 (setting [5]), no less than 77900 nM; in the experiment with HLA-A*68:01 (setting [5]) it was 8050 nM.

For the sequence VVYRGTTTYK, the dissociation constant (Kd) was 5.74 nM in the experiment with HLA-A*03:01 (setting [4]); 15.8 nM with HLA-A*11:01 (setting [4]); 6920 nM with HLA-A*33:01 (setting [4]); 260 nM in the experiment with HLA-A*31:01 (setting [4]); 11.6 nM with HLA-A*68:01 (setting [4]).

As for WLYYNQDVQR, the Kd in the experiment with HLA-A*03:01 (setting [5]) stood at 1840 nM; in the experiment with HLA-A*11:01 (setting [5]), 7910 nM; with HLA-A*33:01 (setting [5]), 161 nM; with HLA-A*31:01 (setting [5]), 222 nM; with HLA-A*68:01 (setting [5]), 8.21 nM.

As for WQIEKASLI, the Kd with HLA-A*02:06 was found to be 43.5 nM.

For the sequence YVLGIFLRKL, in the experiment with HLA-A*02:06, the equilibrium dissociation constant (Kd) worked out at 32.6 nM.
